Where a chain is given by its changes, count along the chain named.
How the values were obtained:
[1] = target: T1, NΔ294-ROS1 (Arabidopsis, UniProt Q9SJQ6 295-1393, del1-294); assay: EMSA; dissociates when chased with unlabelled S; needs higher protein than SL1-2; EMSA: 10 nM (so in the source) Tris-HCl pH 8.0, 1 mM DTT, 10 ug/ml BSA, 1 mM EDTA, 25 C, 60 min; 100 nM probe; 0.2% agarose, 1x TAE; details: protein: recombinant; tags: N-terminal His; label: 5'-fluorescein upper strand
T1 sequence: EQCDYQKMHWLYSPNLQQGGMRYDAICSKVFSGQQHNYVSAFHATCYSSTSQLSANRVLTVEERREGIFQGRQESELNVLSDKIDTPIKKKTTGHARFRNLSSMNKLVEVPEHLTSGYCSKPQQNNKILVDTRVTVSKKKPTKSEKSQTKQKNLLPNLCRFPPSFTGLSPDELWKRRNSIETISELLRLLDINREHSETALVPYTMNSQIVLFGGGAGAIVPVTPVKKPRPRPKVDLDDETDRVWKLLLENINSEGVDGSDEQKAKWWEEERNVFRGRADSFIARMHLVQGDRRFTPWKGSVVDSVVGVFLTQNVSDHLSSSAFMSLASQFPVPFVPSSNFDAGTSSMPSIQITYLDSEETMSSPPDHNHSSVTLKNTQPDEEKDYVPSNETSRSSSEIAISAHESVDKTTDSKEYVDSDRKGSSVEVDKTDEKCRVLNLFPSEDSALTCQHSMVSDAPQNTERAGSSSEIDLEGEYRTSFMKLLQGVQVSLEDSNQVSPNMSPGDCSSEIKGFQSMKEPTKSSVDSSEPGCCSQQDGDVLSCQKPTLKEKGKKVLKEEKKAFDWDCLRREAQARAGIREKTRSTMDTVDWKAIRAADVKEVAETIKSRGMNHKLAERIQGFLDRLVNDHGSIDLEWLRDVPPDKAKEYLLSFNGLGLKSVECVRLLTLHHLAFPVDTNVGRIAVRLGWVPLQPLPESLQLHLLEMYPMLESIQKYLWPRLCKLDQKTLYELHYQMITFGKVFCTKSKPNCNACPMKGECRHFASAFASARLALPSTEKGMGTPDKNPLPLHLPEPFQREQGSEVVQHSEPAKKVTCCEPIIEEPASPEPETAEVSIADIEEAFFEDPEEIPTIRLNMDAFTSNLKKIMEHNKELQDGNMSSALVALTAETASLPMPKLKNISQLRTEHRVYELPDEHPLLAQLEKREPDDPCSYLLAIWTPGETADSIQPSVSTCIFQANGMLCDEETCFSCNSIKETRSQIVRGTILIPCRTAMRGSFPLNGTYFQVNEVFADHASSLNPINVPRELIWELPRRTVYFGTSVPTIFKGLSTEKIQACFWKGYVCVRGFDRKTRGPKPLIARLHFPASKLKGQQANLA

[2] = target: T2, FL-ROS1 (Arabidopsis, UniProt Q9SJQ6 1-1393); assay: EMSA; dissociates when chased with unlabelled S; EMSA: 10 nM (so in the source) Tris-HCl pH 8.0, 1 mM DTT, 10 ug/ml BSA, 1 mM EDTA, 25 C, 60 min; 100 nM probe; 0.2% agarose, 1x TAE; details: protein: recombinant; tags: N-terminal His; label: 5'-fluorescein upper strand
T2 sequence: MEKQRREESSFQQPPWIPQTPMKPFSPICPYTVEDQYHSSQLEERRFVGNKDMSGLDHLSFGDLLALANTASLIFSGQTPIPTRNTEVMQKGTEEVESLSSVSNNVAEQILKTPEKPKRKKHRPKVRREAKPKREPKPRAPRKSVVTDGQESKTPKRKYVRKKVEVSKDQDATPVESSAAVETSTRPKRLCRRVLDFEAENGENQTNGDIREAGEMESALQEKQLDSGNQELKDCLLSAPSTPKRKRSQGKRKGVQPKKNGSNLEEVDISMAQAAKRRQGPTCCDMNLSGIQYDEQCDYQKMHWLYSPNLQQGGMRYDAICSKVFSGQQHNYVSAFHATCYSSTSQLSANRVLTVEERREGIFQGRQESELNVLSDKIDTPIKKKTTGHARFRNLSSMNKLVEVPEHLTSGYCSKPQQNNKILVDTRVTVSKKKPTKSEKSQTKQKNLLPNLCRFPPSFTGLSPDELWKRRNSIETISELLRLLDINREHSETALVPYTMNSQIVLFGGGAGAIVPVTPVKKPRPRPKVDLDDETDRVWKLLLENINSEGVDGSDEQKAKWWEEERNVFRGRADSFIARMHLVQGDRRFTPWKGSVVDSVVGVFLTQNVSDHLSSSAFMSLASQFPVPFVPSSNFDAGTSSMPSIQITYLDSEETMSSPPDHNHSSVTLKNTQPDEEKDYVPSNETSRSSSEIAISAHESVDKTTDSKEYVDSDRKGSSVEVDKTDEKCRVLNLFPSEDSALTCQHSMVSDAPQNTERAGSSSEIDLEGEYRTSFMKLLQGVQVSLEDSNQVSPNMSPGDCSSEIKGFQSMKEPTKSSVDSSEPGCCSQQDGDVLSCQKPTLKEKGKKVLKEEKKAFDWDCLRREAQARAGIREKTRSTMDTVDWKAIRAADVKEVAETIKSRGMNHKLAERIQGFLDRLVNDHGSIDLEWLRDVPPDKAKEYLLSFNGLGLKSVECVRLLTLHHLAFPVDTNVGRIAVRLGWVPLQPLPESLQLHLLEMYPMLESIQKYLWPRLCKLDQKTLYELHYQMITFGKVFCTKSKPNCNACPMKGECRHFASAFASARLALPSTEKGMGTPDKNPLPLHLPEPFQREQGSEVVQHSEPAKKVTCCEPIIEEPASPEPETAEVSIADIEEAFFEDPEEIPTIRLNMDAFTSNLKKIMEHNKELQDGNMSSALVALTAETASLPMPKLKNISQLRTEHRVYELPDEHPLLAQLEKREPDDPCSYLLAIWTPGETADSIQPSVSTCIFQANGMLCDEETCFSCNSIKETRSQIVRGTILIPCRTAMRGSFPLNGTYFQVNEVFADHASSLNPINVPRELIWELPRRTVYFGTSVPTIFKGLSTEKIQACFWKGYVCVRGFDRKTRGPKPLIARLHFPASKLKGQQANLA

[3] = target: T2, FL-ROS1; assay: EMSA; chase with competitor; similar to methylated S; EMSA: 10 nM (so in the source) Tris-HCl pH 8.0, 1 mM DTT, 10 ug/ml BSA, 1 mM EDTA, 25 C, 60 min; 100 nM probe; 0.2% agarose, 1x TAE; details: protein: recombinant; tags: N-terminal His; label: 5'-fluorescein upper strand
[4] = target: T1, NΔ294-ROS1; assay: EMSA; easier to dissociate by competitor S than FL-ROS1; EMSA: 10 nM (so in the source) Tris-HCl pH 8.0, 1 mM DTT, 10 ug/ml BSA, 1 mM EDTA, 25 C, 60 min; 100 nM probe; 0.2% agarose, 1x TAE; details: protein: recombinant, tags: N-terminal His, label: 5'-fluorescein upper strand, four-way junction obstacle
[5] = target: T2, FL-ROS1; assay: EMSA; low dissociation with competitor S, slightly higher than SL1-2; EMSA: 10 nM (so in the source) Tris-HCl pH 8.0, 1 mM DTT, 10 ug/ml BSA, 1 mM EDTA, 25 C, 60 min; 100 nM probe; 0.2% agarose, 1x TAE; details: protein: recombinant, tags: N-terminal His, label: 5'-fluorescein upper strand, four-way junction obstacle
[6] = target: T2, FL-ROS1; assay: EMSA; dissociates when chased with mismatched S; EMSA: 10 nM (so in the source) Tris-HCl pH 8.0, 1 mM DTT, 10 ug/ml BSA, 1 mM EDTA, 25 C, 60 min; 100 nM probe; 0.2% agarose, 1x TAE; details: protein: recombinant; tags: N-terminal His; label: 5'-fluorescein upper strand; central T:G mispair
[7] = target: T2, FL-ROS1; assay: EMSA; remains bound when chased with mismatched S; affinity not higher than for S; EMSA: 10 nM (so in the source) Tris-HCl pH 8.0, 1 mM DTT, 10 ug/ml BSA, 1 mM EDTA, 25 C, 60 min; 100 nM probe; 0.2% agarose, 1x TAE; details: protein: recombinant; tags: N-terminal His; label: 5'-fluorescein upper strand; four-way junction obstacles on both sides; central T:G mispair
[8] = target: T2, FL-ROS1; assay: EMSA; chase with competitor; similar to methylated SL1-2; EMSA: 10 nM (so in the source) Tris-HCl pH 8.0, 1 mM DTT, 10 ug/ml BSA, 1 mM EDTA, 25 C, 60 min; 100 nM probe; 0.2% agarose, 1x TAE; details: protein: recombinant; tags: N-terminal His; label: 5'-fluorescein upper strand; four-way junction obstacles on both sides
[9] = target: T2, FL-ROS1; assay: EMSA; remains bound when chased with unlabelled S; affinity not higher than for S; EMSA: 10 nM (so in the source) Tris-HCl pH 8.0, 1 mM DTT, 10 ug/ml BSA, 1 mM EDTA, 25 C, 60 min; 100 nM probe; 0.2% agarose, 1x TAE; details: protein: recombinant; tags: N-terminal His; label: 5'-fluorescein upper strand; four-way junction obstacles on both sides
[10] = target: T1, NΔ294-ROS1; assay: EMSA; binds at lower concentration than to S; displaced at high competitor S; EMSA: 10 nM (so in the source) Tris-HCl pH 8.0, 1 mM DTT, 10 ug/ml BSA, 1 mM EDTA, 25 C, 60 min; 100 nM probe; 0.2% agarose, 1x TAE; details: protein: recombinant; tags: N-terminal His; label: 5'-fluorescein upper strand; four-way junction obstacles on both sides

B1: S (5-meC:G) (dsDNA)
DNA 1: TCACGCGGGATCAATGTGTTCTTTCAGCTCCGGTCACGCTGACCAGGAATACCTCACTACC
DNA 2: GGTAGTGAGGTATTCCTGGTCAGCGTGACCGGAGCTGAAAGAACACATTGATCCCGCGTGA
modifications: one central 5-meC in CG context
[1]
  binding result: binds
[2]
  binding result: binds

B2: S (homoduplex, no target) (dsDNA)
DNA 1: B1 DNA 1
DNA 2: B1 DNA 2
[3]
  binding result: binds

B3: SL1 (5-meC:G) (dsDNA)
DNA 1: B1 DNA 1
DNA 2: GGTAGTGAGGTATTCCCCCGTAAGGGTCCGTAAGGATGGTCAGCGTGACCGGAGCTGAAAGAACACATTGATCCCGCGTGA
modifications: one central 5-meC in CG context
[4]; left
  binding result: binds
[5]; left
  binding result: binds

B4: S (T:G) (dsDNA)
DNA 1: B1 DNA 1 with C31T
DNA 2: B1 DNA 2
[6]
  binding result: binds

B5: SL1-2 (T:G) (dsDNA)
DNA 1: B1 DNA 1 with C31T
DNA 2: GGTAGTGAGGTATTCCCCCGTAAGGGTCCGTAAGGATGGTCAGCGTGACCGGAGCTGAAAGAACACCCGTAAGGGTCCGTAAGGACATTGATCCCGCGTGA
[7]
  binding result: binds

B6: SL1-2 (homoduplex, no target) (dsDNA)
DNA 1: B1 DNA 1
DNA 2: B5 DNA 2
[8]
  binding result: binds

B7: SL1-2 (5-meC:G) (dsDNA)
DNA 1: B1 DNA 1
DNA 2: B5 DNA 2
modifications: one central 5-meC in CG context
[9]
  binding result: binds
[10]
  binding result: binds

B8: SL2 (5-meC:G) (dsDNA)
DNA 1: B1 DNA 1
DNA 2: GGTAGTGAGGTATTCCTGGTCAGCGTGACCGGAGCTGAAAGAACACCCGTAAGGGTCCGTAAGGACATTGATCCCGCGTGA
modifications: one central 5-meC in CG context
[4]; right
  binding result: binds
[5]; right
  binding result: binds
